B1: E3 ubiquitin-protein ligase CHIP (Mus musculus), Q9WUD1 (parent)
chain: MKGKEEKEGGARLGTGGGGSPDKSPSAQELKEQGNRLFVGRKYPEAAACYGRAITRNPLVAVYYTNRALCYLKMQQPEQALADCRRALELDGQSVKAHFFLGQCQLEMESYDEAIANLQRAYSLAKEQRLNFGDDIPSALRIAKKKRWNSIEERRIHQESELHSYLTRLIAAERERELEECQRNHEGHEDDGHIRAQQACIEAKHDKYMADMDELFSQVDEKRKKRDIPDYLCGKISFELMREPCITPSGITYDRKDIEEHLQRVGHFDPVTRSPLTQEQLIPNLAMKEVIDAFISENGWVEDY
partner: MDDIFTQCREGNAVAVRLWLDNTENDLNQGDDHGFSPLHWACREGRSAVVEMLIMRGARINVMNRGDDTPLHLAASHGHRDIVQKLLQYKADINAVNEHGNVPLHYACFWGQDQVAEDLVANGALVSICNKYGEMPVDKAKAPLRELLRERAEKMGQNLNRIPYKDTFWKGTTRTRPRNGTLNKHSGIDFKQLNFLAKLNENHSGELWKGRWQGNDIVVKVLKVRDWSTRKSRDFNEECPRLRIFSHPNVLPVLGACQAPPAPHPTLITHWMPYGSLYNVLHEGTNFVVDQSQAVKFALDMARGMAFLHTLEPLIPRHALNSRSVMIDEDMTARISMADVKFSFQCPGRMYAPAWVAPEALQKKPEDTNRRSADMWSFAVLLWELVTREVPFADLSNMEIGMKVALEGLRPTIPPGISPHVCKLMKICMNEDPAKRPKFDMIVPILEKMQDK

Variants of: B1
Conditions: with ilk_mouse Ilk

| Variant | effect of a mutation on the interaction |
| --- | --- |
| K31A | decreasing interaction |
